From patent US20250282887A1 (Amgen, published 2025)
Positions count from the first letter of the chain named.

T1: human MAGEA4 (human, UniProt P43358 1-317)
T1 construct: whole, on cells; Transfected into CHO cells with Myc/DDK tags
T1 sequence (looked up): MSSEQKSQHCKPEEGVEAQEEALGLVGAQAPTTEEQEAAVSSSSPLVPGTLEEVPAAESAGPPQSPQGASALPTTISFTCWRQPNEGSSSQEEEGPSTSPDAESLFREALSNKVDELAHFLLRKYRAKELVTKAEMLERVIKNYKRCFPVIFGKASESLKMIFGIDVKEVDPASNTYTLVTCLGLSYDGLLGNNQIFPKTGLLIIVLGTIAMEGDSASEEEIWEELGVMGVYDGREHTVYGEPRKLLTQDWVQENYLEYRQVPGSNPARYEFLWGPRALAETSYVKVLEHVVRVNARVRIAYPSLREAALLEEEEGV

B1: 1C3 (antibody, V domains shown)
VH: QSLEESGGGLVQPEGSLTLTCTAFGVTLTNYYICWVRQAPGKGLEWVGCIDNANGRTYYASWAKGRFTISKTSSTTGTLQMTSLTAADTATYFCARSLATPLWGPGTLVTVSS
VL: DIVMTQTPSSVEAAVGGTVTIKCQASQNISSYLAWYQQKPGQPPKLLIYRASTLASGVPSRFKGSGSGTQFTLTISDLECADAATYYCQSYDDSRSSNFFYAFGGGTEVVVKG
notes: also called MAGE-B2 (IC3); anti-MAGEB2 antibody 1C3
B2: 4G17 (antibody, IgG1, V domains shown)
VH: B1 VH with F24S, T29S, V47I, A53V
VL: DIVMTQTPASVEAAVGGTVTIKCQASQNIDSYLAWYQQKPGQPPKLLIYRASTLASGVPSRFKGSGSGTEFTLTISDLECADAATYYCQSYDDSRSSSFFYGFGGGTEVVVK
notes: Rabbit monoclonal IgG1; Tested as supernatant and as small batch purified antibody; also called MAGE-B2 (4G17); anti-MAGEB2 antibody 4G17
B3: 1J15 (antibody, IgG1, V domains shown)
VH: B1 VH with V26F, T29N, V47I, G48A, G77V, A99S
VL: B2 VL with N28S, D30S, A34S, K63R, E70Q, R95S, S96D, S97N, S98N, K112R
notes: Rabbit monoclonal IgG1; Tested as supernatant and as small batch purified antibody; also called MAGE-B2 (IJ15); anti-MAGEB2 antibody 1J15
B4: 1I14 (antibody, V domains shown)
VH: QSVEESGGRLVTPGTPLTLTCTISGFSLSSYAMSWVRQAPGKGLEWIGSIGGGGSAVYASWAKGRFTISKTSTTVDLRITSPTTEDTAMYFCGRGFYSIDLWGPGTLVTVSS
VL: DVVMTQTPASVEATVGGTVTIKCQSSQSVYDNNALAWYQQNAGQRPRLLIYGASTLASGVPSRFSASGSGTEFTLTISDLECADAATYYCQCTYYVSSYQNDFGGGTEVVVKG
notes: also called MAGE-B2 (1i14)

The binders below were run against T1, human MAGEA4 (assay: IHC, FFPE CHO cells transfected with human MAGEA4).
Text: Negative control cells included parental Chinese hamster ovary (CHO) cells, CHO cells stably transfected with mCherry Vector Control (minus Myc/DDK tags), CHO cells stably transfected with mCherry-human DCAF4L2 (plus Myc/DDK tags). The cross-reactivity control cells included CHO cells transfected with mCherry Vector Control (plus Myc/DDK tags) with one of the human MAGE-B or MAGE-A family members (MAGEA1, MAGEA2, MAGEA3, MAGEA4, MAGEA5, MAGEA6, MAGEA8, MAGEA9, MAGEA11, MAGEA12, MAGEB1, MAGEB3, MAGEB4, MAGEB5, MAGEB6, MAGEB10, MAGEB16, MAGEB17, MAGEB18). Positive control cell lines included CHO cells transfected with mCherry Vector (plus Myc/DDK tags) with human MAGE-B2 or CHO cells transfected with mCherry Vector (open reading frame (ORF); minus Myc/DDK tags) with human MAGEB2, and thirteen human cancer cell lines with known endogenous RNA expression level of MAGEB2 (U266B1, T98G, KMM-1, U20S, CFPAC-1, SCaBER, UACC-257, CFPAC-1, VMRC-LCD, NCI-H1703, UM-UC-3, NCI-H1395, NCIH82).
FFPE samples were sectioned at 4 μm and mounted on positive charged glass slides. After mounting, paraffin sections were air-dried at room temperature. FFPE TMA samples were received as freshly sectioned and mounted on glass slides. The fully automated IHC assay was performed on a Discovery Ultra Stainer (Ventana Medical Systems, Tucson, AZ) using Ventana Anti-Rabbit HQ (cat #760-4815), Ventana Anti-HQ HRP (cat #760-4820), and Ventana Antibody Diluent with Casein (cat #760-219) (Ventana Medical Systems, Tucson, AZ). The slides were baked on the Discovery Ultra Stainer at 60° C. for 8 minutes, de-paraffinized with Ventana Discovery wash (cat #950-510) for 3 cycles (8 minutes each) at 69° C., and underwent cell conditioning (target retrieval) at 95° C. for 16 minutes (for cell arrays) or 32 minutes (tissues or TMAs) in CC1 buffer (cat #950-500). Following this, slides were incubated with Background Sniper (cat #BS966M, Biocare Medical, Pacheco, CA) in a Ventana Option Prep kit (cat #771-751) for 28 minutes, incubated with CM inhibitor (a part of the Ventana DAB kit cat #760-159) for 12 minutes, and incubated for 1 h at RT with MAGE-B2 antibody diluted with Ventana diluent with Casein in a Ventana Prep kit (cat #770-001) (working concentration at 0.1 μg/ml for cell pellet, or 1-5 ug/ml for tissues) or with a matched concentration of isotype control Rabbit IgG1 antibody.

| binding result | Binder |
| --- | --- |
| no binding (tested: 0.1 µg/ml) | B1 |
| no binding (tested: 0.1 µg/ml) | B2 |
| no binding (tested: 0.1 µg/ml) | B3 |
| no binding (tested: 0.1 µg/ml) | B4 |
